Test results: US20090117124A1 (Pfizer, published 2009)
Numbering of substitutions follows the chain as printed. Names and notes keep the numbering of the source.

T1: human IgA (Sigma, Cat. No. I2636) (human)
T1 chain: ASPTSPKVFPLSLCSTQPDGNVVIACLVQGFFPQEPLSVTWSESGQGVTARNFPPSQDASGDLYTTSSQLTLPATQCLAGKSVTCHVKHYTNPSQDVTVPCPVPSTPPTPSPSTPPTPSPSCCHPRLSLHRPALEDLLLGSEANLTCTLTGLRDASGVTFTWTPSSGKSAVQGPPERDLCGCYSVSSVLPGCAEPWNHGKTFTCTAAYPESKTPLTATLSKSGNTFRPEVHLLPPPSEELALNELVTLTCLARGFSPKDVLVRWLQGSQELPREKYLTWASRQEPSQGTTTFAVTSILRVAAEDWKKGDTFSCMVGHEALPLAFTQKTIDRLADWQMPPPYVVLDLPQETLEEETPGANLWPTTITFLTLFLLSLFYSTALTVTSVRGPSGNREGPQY

B1: 5.948.1 (recombinant) (antibody, human IgG2, kappa, V domains shown)
VH: QVQLVQSGAEVKKPGASVKVSCKASGYTFTSYDINWVRQATGQGLEWMGWMDPNSGNTGYAQKFQGRVTMTRNTSISTAYMELSSLRSEDTAVYYCARGHYDSDGYYSFSGMDVWGQGTTVTVSS
VL: not shown
notes: Human IgG2 kappa; leader omitted; Two batches were tested in some assays; also called recombinant 5.948.1; 5.948.1 - Batch 1 (762.8 µg/mL)
B2: 5.948.1 Hc-H100Y (antibody, human IgG2, kappa, V domains shown)
VH: B1 VH with H100Y
VL: not shown
notes: Human IgG2 kappa; leader omitted; also called 5.948.1 (H100Y); 5.948.1 H100Y

Assays:
[1] = target: T2, free IgE in human serum (healthy volunteers, in-house donors) (human, UniProt P01854-1 1-428); test: serum free IgE depletion ELISA; DIN 0451 experiment 2
T2 construct: Kept apart from the bought myeloma IgE because it is native serum IgE of single donors; also called serum IgE
T2 sequence (P01854 other isoform, or with tags, fused parts or gaps): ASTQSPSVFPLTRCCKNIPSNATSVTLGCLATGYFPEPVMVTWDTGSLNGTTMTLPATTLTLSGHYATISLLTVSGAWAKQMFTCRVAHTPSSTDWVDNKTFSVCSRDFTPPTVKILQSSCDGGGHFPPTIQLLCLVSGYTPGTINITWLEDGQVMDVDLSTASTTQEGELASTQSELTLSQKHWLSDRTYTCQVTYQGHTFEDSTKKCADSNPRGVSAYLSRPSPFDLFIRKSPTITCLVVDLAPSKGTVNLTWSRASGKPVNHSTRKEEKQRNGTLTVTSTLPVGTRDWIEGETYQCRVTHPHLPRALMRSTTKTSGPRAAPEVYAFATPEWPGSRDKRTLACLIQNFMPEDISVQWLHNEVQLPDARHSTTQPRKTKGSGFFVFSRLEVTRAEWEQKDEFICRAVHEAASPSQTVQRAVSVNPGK
Procedure: (§1) The next day ELISA plates were washed 1× with 300 μL/well wash buffer (0.05% Tween-20, Sigma, Cat. No. P7949/TBS) then blocked with 150 μL/well 1% BSA (Sigma, Cat. No. A7030) in TBS for 1 hour at room temperature.

[2] = target: T3, cynomolgus monkey IgE (in cynomolgus serum, Harlan Sera-Lab Ltd) (cynomolgus monkey); test: capture ELISA, Test 2, Cyno 5
T3 construct: Serum was the source of IgE; eight serum samples; also called cynomolgus IgE; Cyno 1 to Cyno 8 serum samples
Procedure: (§2) Wells were washed once with 150 μL/well wash buffer (0.05% Tween-20, Sigma, Cat. No. P7949/TBS) then blocked with 150 μL/well 1% BSA (Sigma, Cat. No. A7030) in TBS for 2 hours at room temperature. Wells were washed twice with 150 μL wash buffer. 50 μL human (in-house donors) or cynomolgus serum (Harlan Sera-Lab Ltd, Loughborough) was added from neat to at least 1:16 dilution in 1% BSA/0.05% Tween-20/TBS diluent buffer. […] Wells were incubated for 2 hours at 25° C. before washing (3×150 μL wash buffer). […] Wells were incubated for 1 hour at 25° C. then washed (3×150 μL wash buffer). Streptavidin-HRP (Amersham Bioscience, Cat. No. RPN 1231) diluted 1:1000 in diluent buffer was added to all wells and incubated for 45 minutes at room temperature. Wells were washed (3×150 […] wash buffer). 50 μL OPD (Dako, Cat. No. S2045) was added to all wells and the color allowed to develop for 10 minutes before stopping the reaction with 50 μl 0.6M H₂SO₄ and the absorbance measured at 490 nm.

[3] = target: T2, free IgE in human serum (healthy …); test: serum free IgE depletion ELISA; DIN 0591
Procedure: as §1

[4] = target: T3, cynomolgus monkey IgE (in cynomolgus …); test: capture ELISA, Test 2, Cyno 4
Procedure: as §2

[5] = target: T3, cynomolgus monkey IgE (in cynomolgus …); test: capture ELISA, Test 2, Cyno 7
Procedure: as §2

[6] = target: T4, human IgE (Human myeloma, azide free, Serotec, Cat. No. PHP008X2) (human, UniProt P01854 1-546); test: cell-based or functional assay
T4 sequence (P01854 whole entry): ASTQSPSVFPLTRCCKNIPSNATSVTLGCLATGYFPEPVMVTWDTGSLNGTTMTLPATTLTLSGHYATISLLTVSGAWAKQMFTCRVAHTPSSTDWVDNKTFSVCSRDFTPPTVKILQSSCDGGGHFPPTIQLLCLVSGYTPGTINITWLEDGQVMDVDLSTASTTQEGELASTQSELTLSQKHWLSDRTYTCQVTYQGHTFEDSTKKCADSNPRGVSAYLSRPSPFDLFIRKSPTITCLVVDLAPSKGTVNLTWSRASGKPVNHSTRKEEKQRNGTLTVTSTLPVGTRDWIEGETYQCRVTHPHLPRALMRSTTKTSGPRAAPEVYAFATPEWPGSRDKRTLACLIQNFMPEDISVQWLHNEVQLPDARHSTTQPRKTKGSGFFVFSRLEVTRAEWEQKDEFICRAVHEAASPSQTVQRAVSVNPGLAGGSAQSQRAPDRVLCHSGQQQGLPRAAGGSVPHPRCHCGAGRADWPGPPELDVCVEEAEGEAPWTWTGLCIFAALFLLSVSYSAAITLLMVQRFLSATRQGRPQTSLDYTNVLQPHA

[7] = target: T1, human IgA (Sigma, Cat. No. I2636); test: ELISA on coated immunoglobulin
Procedure: (§3) Wells were washed 3× with 150 μL wash buffer (0.05% Tween-20 (Sigma, Cat. No. P7949)/PBS) then blocked with 150 μL/well blocking buffer (2.5% BSA (Sigma, Cat. No. A7030)/PBS) for 2 hours at room temperature. Wells were washed 3× with 150 μL wash buffer/well. […] Antibodies were diluted in diluent buffer (PBS/1% BSA/0.05% Tween-20) and this was added to blank control wells (duplicate wells for each secondary antibody used). Antibodies were incubated for 2 hours at room temperature. Wells were washed 3× with 150 μL wash buffer/well. Binding of control antibodies to immunoglobulin was detected with anti-mouse IgG-HRP conjugate (Sigma, Cat. No. A4416) diluted 1:8000 in diluent buffer. 50 μL/well was added to control antibody and blank wells. Wells were incubated for 1 hour at room temperature, then washed 3× with 150 μL wash buffer/well. 50 μl OPD (Dako, Cat. No. […] Wells were incubated for 1 hour at room temperature then washed 3× with 150 μL wash buffer/well. Streptavidin-HRP (Amersham Bioscience, Cat. No. RPN 1231) diluted 1:2000 in diluent buffer was added to all wells and incubated for 45 minutes at room temperature. Wells were washed (3×150 μL wash buffer).

[8] = target: T5, human IgG3 (Biodesign, Cat. No. A50186H) (human); test: ELISA on coated immunoglobulin
T5 construct: Bought immunoglobulin coated on the plate
Procedure: as §3

[9] = target: T4, human IgE (Human myeloma, azide free, …); test: ELISA on coated immunoglobulin
Procedure: as §3

[10] = target: T6, human IgG1 (Biodesign, Cat. No. A50183H) (human); test: ELISA on coated immunoglobulin
T6 construct: Bought immunoglobulin coated on the plate
Procedure: as §3

Binder | IC25 ng/mL [1] [µg/mL] | IgE concentration detected [2] [ng/mL] | IC25 ng/mL [3] [µg/mL] | IgE concentration detected [4] [ng/mL] | IgE concentration detected [5] [ng/mL] | IC50, inhibition of IgE-mediated degranulation (histamine release) of RBL-2H3 (FcεR1) cells; Batch 1 [6] [µg/mL] | IC50, inhibition of IgE-mediated degranulation (histamine release) of RBL-2H3 (FcεR1) cells; Batch 2 [6] [µg/mL] | A290 nm [7] [A290 nm] | A290 nm [8] [A290 nm] | A290 nm [9] [A290 nm] | A290 nm [10] [A290 nm] | IC50, inhibition of IgE-mediated degranulation (histamine release) of RBL-2H3 (FcεR1) cells [6] [µg/mL]
B1 | 39.7 | 630 | 2.35 | 38 | 0 | 0.36 | 0.123 | 0.04 | 0.04 | 2.57 | 0.07 | 
B2 | 10.5 | 420 | 0.55 | 25 | 0 |  |  | 0.05 | 0.06 | 1.05 | 0.06 | 0.0121
